From PMC4763541, “Pitchfork and Gprasp2 Target Smoothened to the Primary Cilium for Hedgehog Pathway Activation” (PLoS ONE, 2016)

Target: T1, full-length hGPRASP2, purified recombinant (human, UniProt Q96D09 1-838)
T1 construct: human G protein-coupled receptor associated sorting protein 2 (GPRASP2), full length, cloned into pETM-11; source: E. coli Rosetta2 (DE3), purified (IMAC, TEV cleavage, second IMAC, SEC on Superdex 200); not shown: His6, N-terminal, cleaved
T1 sequence (looked up): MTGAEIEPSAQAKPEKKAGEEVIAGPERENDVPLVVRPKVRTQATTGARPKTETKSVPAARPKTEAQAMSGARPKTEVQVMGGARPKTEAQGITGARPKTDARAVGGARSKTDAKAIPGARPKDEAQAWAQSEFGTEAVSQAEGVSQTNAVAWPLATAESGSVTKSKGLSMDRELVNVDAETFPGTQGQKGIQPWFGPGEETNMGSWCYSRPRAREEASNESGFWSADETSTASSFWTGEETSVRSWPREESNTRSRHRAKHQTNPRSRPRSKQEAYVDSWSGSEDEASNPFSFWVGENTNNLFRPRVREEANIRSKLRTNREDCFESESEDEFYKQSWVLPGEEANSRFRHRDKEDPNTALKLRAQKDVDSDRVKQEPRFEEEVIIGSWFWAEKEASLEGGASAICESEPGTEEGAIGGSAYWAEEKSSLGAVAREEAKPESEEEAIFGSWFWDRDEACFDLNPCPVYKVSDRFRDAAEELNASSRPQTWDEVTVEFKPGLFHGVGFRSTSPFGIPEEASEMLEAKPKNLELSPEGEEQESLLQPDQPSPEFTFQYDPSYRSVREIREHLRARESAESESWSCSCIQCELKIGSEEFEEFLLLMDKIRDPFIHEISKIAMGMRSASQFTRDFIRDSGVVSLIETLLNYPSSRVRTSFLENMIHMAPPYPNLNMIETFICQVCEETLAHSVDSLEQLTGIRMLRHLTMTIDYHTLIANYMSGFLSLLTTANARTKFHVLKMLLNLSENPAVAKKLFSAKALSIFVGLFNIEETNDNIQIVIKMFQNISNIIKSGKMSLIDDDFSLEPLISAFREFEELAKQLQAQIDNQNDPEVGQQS
Experiment: NMR titration; 1D 1H NMR (…), 800 MHz, 298 K; 100 μM peptide before and after addition of hGPRASP2 to 4 μM (1:25 hGPRASP2:peptide); 50 mM Tris.HCl pH 8, 300 mM NaCl, 0.01% 1-thioglycerol; line broadening and loss of intensity of the peptide signals
Conditions: both partners purified

KATLLIWRRTWCRL (peptide, UniProt Q99835 539-552, looked up, source: synthetic peptide (PSL GmbH)) [hSMO-WT peptide (human SMO aa 539-552)]
binding result: binds
